The results in this text go back to US20040138431A1 (Genentech, published 2004).

The target in the test is trkB with a gD tag expressed on CHO cells. Description: cell-based or functional assay.

B1: recombinant human NT-4/5 (rhNT-4/5), correctly folded, intact, purified from E. coli (ligand)
chain: GVSETAPASRRGELAVCDAVSGWVTDRRTAVDLRGREVEVLGEVPAAGGSPLRQYFFETRCKADNAEEGGPGAGGGGCRGVDRRHWVSECKAKQSYVRALTAHAQGRVGWRWIRIDTACVCTLLSRTGRA
On to B1, for which the “EC50, kinase receptor activation (KIRA) assay” value was 0.0126 µg/mL.
